Reference: IntAct's records for PubMed 16301520

B1: Mitochondrial antiviral-signaling protein (Homo sapiens), Q7Z434 (parent)
chain: MPFAEDKTYKYICRNFSNFCNVDVVEILPYLPCLTARDQDRLRATCTLSGNRDTLWHLFNTLQRRPGWVEYFIAALRGCELVDLADEVASVYQSYQPRTSDRPPDPLEPPSLPAERPGPPTPAAAHSIPYNSCREKEPSYPMPVQETQAPESPGENSEQALQTLSPRAIPRNPDGGPLESSSDLAALSPLTSSGHQEQDTELGSTHTAGATSSLTPSRGPVSPSVSFQPLARSTPRASRLPGPTGSVVSTGTSFSSSSPGLASAGAAEGKQGAESDQAEPIICSSGAEAPANSLPSKVPTTLMPVNTVALKVPANPASVSTVPSKLPTSSKPPGAVPSNALTNPAPSKLPINSTRAGMVPSKVPTSMVLTKVSASTVPTDGSSRNEETPAAPTPAGATGGSSAWLDSSSENRGLGSELSKPGVLASQVDSPFSGCFEDLAISASTSLGMGPCHGPEENEYKSEGTFGIHVAENPSIQLLEGNPGPPADPDGGPRPQADRKFQEREVPCHRPSPGALWLQVAVTGVLVVTLLVVLYRRRLH

Variants of: B1
Conditions: with polg_hcv77 polg

Variant | effect of a mutation on the interaction
C508R | decreasing interaction
